Test results published in PMC8372317, “Discovering protein–protein interaction stabilisers by native mass spectrometry†” (Chemical Science, 2021).
Non-standard residues stand in square brackets, D forms with d. pT = C[C@@H](OP(=O)(O)O)[C@H](N)C(=O)O

Biological target: T1, 14-3-3σ (UniProt P31947 1-248, partial β-mercaptoethanol capping of Cys38 (+76 Da adduct))
T1 construct: 14-3-3σ (14-3-3 protein sigma); The His-tag is TEV protease cleavable; Observed predominantly as a dimer by native MS; also called recombinant 14-3-3σ; receptor (R)
T1 sequence (looked up): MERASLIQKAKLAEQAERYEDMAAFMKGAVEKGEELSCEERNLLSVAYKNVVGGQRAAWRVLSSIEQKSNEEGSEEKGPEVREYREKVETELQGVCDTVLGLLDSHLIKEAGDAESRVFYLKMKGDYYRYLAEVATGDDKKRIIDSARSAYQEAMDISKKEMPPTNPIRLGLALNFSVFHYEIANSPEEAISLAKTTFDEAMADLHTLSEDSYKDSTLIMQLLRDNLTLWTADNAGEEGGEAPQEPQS
Assay: native MS; 14-3-3σ 5 μM (monomer) with 25 μM phosphopeptide, no ligand (R:P:L 1:5:0); 50 mM ammonium acetate pH 6.8, 0.25% DMSO
Settings: both partners purified

B1: ERα(581–595) phosphopeptide (peptide)
peptide: Ac-KYYITGEAEGFPA[pT]V-OH
notes: estrogen receptor ERα, C-terminal fragment, residues 581-595; also called C-terminal fragment of estrogen receptor ERα; source: synthetic peptide, bought: Synpeptide Ltd (>95% purity)
B1 was tested, and the “stoichiometry N” value was 2 peptide per 14-3-3σ dimer.
